The results in this text go back to patent US20200353030A1 (BAR ILAN UNIVERSITY, published 2020).

B2: hRobo2 receptor ectodomain D4-D5 N426M (residues 311-509 of human Robo2) (receptor)
chain: RAPPQFVVRPRDQIVAQGRTVTFPCETKGNPQPAVFWQKEGSQNLLFPNQPQQPNSRCSVSPTGDLTITNIQRSDAGYYICQALTVAGSILAKAQLEVTDVLTDRPPPIILQGPAMQTLAVDGTALLKCKATGDPLPVISWLKEGFTFPGRDPRATIQEQGTLQIKNLRISDTGTYTCVATSSSGETSWSAVLDVTESG
modifications: additional 655 Da glycosylation found by mass spectroscopy (site not stated)
notes: also called WT hRobo2 D4-5; hRobo2 D4-D5 fragment; not shown: N-terminal FLAG tag of the modified pFastBac (pK503-9) vector; C-terminal hexahistidine tag

Data set [1] deals with Robo2 of mouse dorsal root ganglion explants (mouse) (UniProt Q7TPD3). Put plainly: cell-based or functional assay.
Chain of Robo2 of mouse dorsal root ganglion explants (mouse) (Q7TPD3 22-1470): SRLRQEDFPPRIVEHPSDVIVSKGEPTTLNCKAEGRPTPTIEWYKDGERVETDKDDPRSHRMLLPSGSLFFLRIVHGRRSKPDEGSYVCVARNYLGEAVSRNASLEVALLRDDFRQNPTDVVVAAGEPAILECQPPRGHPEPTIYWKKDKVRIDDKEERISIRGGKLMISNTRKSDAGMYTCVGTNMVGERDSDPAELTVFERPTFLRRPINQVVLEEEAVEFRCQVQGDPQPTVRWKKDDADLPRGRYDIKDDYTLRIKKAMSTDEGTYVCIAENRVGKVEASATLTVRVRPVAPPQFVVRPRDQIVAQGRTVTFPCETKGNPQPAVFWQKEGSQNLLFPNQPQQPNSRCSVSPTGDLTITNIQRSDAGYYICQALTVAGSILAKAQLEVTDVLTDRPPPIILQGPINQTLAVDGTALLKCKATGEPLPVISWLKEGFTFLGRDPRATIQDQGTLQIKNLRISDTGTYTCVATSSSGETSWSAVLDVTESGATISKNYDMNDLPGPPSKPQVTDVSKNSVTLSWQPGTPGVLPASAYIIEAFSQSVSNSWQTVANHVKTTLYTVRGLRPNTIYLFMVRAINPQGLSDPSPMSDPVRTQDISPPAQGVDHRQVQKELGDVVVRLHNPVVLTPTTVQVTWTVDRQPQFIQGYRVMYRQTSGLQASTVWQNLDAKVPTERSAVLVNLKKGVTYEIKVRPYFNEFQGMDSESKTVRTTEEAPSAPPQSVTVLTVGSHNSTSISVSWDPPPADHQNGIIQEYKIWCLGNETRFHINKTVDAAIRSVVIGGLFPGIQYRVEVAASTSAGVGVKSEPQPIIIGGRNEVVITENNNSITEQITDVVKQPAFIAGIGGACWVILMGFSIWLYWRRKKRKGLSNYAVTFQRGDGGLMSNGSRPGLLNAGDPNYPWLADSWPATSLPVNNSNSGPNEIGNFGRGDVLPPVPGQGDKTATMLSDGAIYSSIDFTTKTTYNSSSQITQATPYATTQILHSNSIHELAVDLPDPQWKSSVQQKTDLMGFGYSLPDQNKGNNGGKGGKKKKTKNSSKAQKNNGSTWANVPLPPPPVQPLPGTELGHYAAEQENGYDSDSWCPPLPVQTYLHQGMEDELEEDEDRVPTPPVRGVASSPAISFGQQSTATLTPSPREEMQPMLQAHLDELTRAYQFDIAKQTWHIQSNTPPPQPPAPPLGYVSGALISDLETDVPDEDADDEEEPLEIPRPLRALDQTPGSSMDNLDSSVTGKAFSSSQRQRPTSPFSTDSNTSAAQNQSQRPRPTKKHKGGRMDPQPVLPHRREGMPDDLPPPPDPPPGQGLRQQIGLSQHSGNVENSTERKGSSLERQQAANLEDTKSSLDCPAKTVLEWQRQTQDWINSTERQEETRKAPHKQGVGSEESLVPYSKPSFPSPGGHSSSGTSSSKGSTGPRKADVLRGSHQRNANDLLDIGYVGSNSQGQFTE
Data set [2] has as its target hRobo2 receptor ectodomain D4-D5 L394R mutant (human) (UniProt Q9HCK4). Kind of data set: sedimentation equilibrium analytical ultracentrifugation, self-association; total molecular weight of the monomer in the same row 24720 Da; the KD column of this row prints 'monomer'.
For data set [3], the target named is hRobo2 receptor ectodomain D4-D5 F357R mutant (human) (UniProt Q9HCK4). Kind of data set: sedimentation equilibrium analytical ultracentrifugation, self-association; total molecular weight of the monomer in the same row 24686 Da; the KD column of this row prints 'monomer'.
Data set [4] concerns the target B2. Kind of data set: apparent KD; ELISA binding assay, method of the fit not stated. (In general: An ELISA detects its analyte on a solid surface through an enzyme-linked reagent.)
Data set [5] deals with the molecule itself. Kind of data set: SE-AUC, monomer-dimer fit, homodimerization in solution (10, 20 and 30 µM). As to the method: All the sedimentation equilibrium experiments with hRobo2 receptor ectodomain D4-D5 constructs were performed using an XL-I analytical ultracentrifuge (Beckman-Coulter Inc.), with a UV-visible optics detection system, using an An60Ti rotor and 12-mm double sector centerpieces. Sedimentation curves were recorded and analyzed at 280 nm while spinning at 20° C. at 20,000 rpm in 10, 12, 14, and 20 hour time points, to assure that equilibrium was reached. Three concentrations (10, 20, and 30 μM) of WT hRobo2 receptor ectodomain D4-D5 (N426M) were measured. The F357R and L394R mutants were measured and analyzed in 20 μM. The molecular weight of WT hRobo2 receptor ectodomain D4-D5 fragment (N426M) was determined by mass spectroscopy using the Orbitrap Fusion Lumos with electron transfer dissociation (ETD), with both instrument and chromatography set up especially for the analysis of intact proteins. The recombinant protein includes an N′ terminal FLAG and C′ terminal 6XHis tags. […] The sedimentation coefficient distributions were calculated using SEDFIT and SEDPHAT (Gabrielson et al., 2007; Schuck et al., 2014).
The oligomeric state of hRobo2 receptor ectodomain D4-D5 in solution was determined by sedimentation equilibrium analytical ultracentrifugation (SE-AUC) (FIGS. 8A-8C). […]

The molecule “hSlitN2 (from UniProt O94813 31-1121) (ligand)” yielded a growth cone collapse of DRG explants 10 min after 5 nM SlitN2, without Fab in data set [1] of 60%.
As to “hRobo2 receptor ectodomain D4-D5 L394R mutant (from UniProt Q9HCK4 311-509)”, the global distribution (Da) sedimentation equilibrium in data set [2] is 24700 Da.
“hRobo2 receptor ectodomain D4-D5 F357R mutant (from UniProt Q9HCK4 311-509)” displayed a global distribution (Da) sedimentation equilibrium in data set [3] of 24100 Da.

B1: Fab antibody fragment AbD32836.1 (Fab, V domains shown)
VH: EVQLVESGGGLVKPGGSLRLSCAASGFTFSSYALSWVRQAPGKGLEWVGHIKSKTDGGATEYAAPVKGRFTISRDDSKNTLYLQMNSLKTEDTAVYYCARSYSEYIPLYAFAVWGQGTLVTVSS
VL: DIVLTQPPSVSGAPGQRVTISCSGSSSNIGSKYVSWYQQLPGTAPKLLIYYTSQRPSGVPDRFSGSKSGTSASLAITGLQAEDEADYYCYAWDSTSTSTVFGGGTKLTVLG
notes: HuCAL phage display Fab from BioRad AbD Serotec, raised against hRobo2 D4-5; also called Fab AbD32836.1; Fab #AbD32836.1
Regarding B1, in data set [4], the Kd was found to be 0.18 µM.
With B2, the Kd in data set [5] was determined as 16.9 µM.
